Our source for the percent of cells positive values is PMC12752125.

The test concerns the target porcine PD-1 (programmed death 1) expressed on HEK293T cells (porcine). The test is described as follows: flow cytometry on cells; HEK293T cells transfected with pcDNA3.1-PD-1 (or empty vector) for 24 h; purified PD-L1-Fc added and incubated for 1 h; percent of positive cells read. In general terms: Flow cytometry measures light scatter and fluorescence of single cells or particles in a stream.

Regarding porcine PD-L1-rabbit Fc fusion protein, the percent of cells positive is 38.3%.
